Experimental data published in patent publication US20090175858A1 (Merck KGaA, published 2009).

Legend:
[1] = biological target: T1, sEGFRd3 (isolated domain III of sEGFR; amino acids 310-514 of mature EGFR) (UniProt P00533 334-538); assay: SPR (Biacore 3000), equilibrium response, sEGFRd3 over immobilized Fab72000
T1 construct: range 310-514; The range 310-514 counts on mature EGFR, not on the precursor; also called soluble extracellular EGFR domain III

[2] = biological target: T2, sEGFR (soluble extracellular region of EGFR), wild-type (UniProt P00533 25-645, limits assumed); assay: SPR (Biacore 3000), equilibrium response, sEGFR over immobilized Fab72000
T2 construct: extracellular domain; also called EGFR soluble extracellular domain

sEGFR T459A/S460A/K463A = biological target: T3, sEGFR T459A/S460A/K463A (UniProt P00533 25-645, limits assumed); assay: SPR, equilibrium response, mutated sEGFR passed over immobilized Fab72000 [2A]
T3 construct: extracellular domain; Positions are in mature EGFR numbering; also called triple alanine mutant

sEGFR K454A/T459A/S460A = biological target: T4, sEGFR K454A/T459A/S460A (UniProt P00533 25-645, limits assumed); assay: as above
T4 construct: extracellular domain; Positions are in mature EGFR numbering; also called triple alanine mutant

B1: Fab fragment of matuzumab (Fab72000) (Fab, V domains shown)
VH: QVQLVQSGAEVKKPGASVKVSCKASGYTFTSHWMHWVRQAPGQGLEWIGEFNPSNGRTNYNEKFKSKATMTVDTSTNTAYMELSSLRSEDTAVYYCASRDYDYDGRYFDYWGQGTLVTVSS
VL: DIQMTQSPSSLSASVGDRVTITCSASSSVTYMYWYQQKPGKAPKLLIYDTSNLASGVPSRFSGSGSGTDYTFTISSLQPEDIATYYCQQWSSHIFTFGQGTKVEIKR
notes: also called Fab fragment of EMD 72000
Q: For B1, which Kd [1] is on record?
A: Its Kd is 50.1 nM.

Q: What about the Kd [2] of the same binder?
A: The Kd was 103 nM.

Q: Does B1 bind (sEGFR T459A/S460A/K463A)?
A: Result: no binding (tested: 2000 nM)

Q: Does B1 bind (sEGFR K454A/T459A/S460A)?
A: Result: no binding (tested: 2000 nM)
